{"source": "the RNAGym collection of RNA variant scans (doi:10.7554/elife.80360)", "parents": {"B1": {"name": "Hairpin Ribozyme (parent)", "chain": "GUCCUCUUUCACGUGCGCGUGAAAGAGAGAAGUGAACCAGAGAAACACACGUUGUGGUAUAUUACCUGGUA"}}}
{"variants_of": "B1", "assay": "self-cleavage, relative activity (ratio to wild type); higher = more cleavage; co-transcriptional"}
{"variant": "GUCCGCUUUCACGUGCGCGUGAAAGAGAAAAGUGAACCAGAGAAACACACGUUGUGGUAUAUUACCUGGUA", "note": "[U5G G29A]", "self-cleavage": 0.139}
{"variant": "GUCCUCUUUCACGUGCGCGUGAAAGAGAGAAGUGAACCAGAGAAAUACACAUUGUGGUAUAUUACCUGGUA", "note": "[C46U G51A]", "self-cleavage": 0.132}
{"variant": "GUCCUCUUUCACGUGCGCGUGAAAGAGAGAAGGGAACCAGAGAAACACACGUGGUGGUAUAUUACCUGGUA", "note": "[U33G U53G]", "self-cleavage": 0.211}
{"variant": "GUCCUCUUUCACGUACGCGUGAAAGAGAGAAGUGAACCAGAGAAACACACGUUGUGGUAUAUCACCUGGUA", "note": "[G15A U63C]", "self-cleavage": 0.0715}
{"variant": "GUCCUCUUUCACGAGCGCGUGAAAGAGAGAAGUGAACCAGAGAAAUACACGUUGUGGUAUAUUACCUGGUA", "note": "[U14A C46U]", "self-cleavage": 0.126}
{"variant": "GUCCUAUUUCACGUGCGCGUGAAAGAGAGAAGUGAACCAGAGAAACACACGUUGUGGUUUAUUACCUGGUA", "note": "[C6A A59U]", "self-cleavage": 0.107}
{"variant": "GUCCUCUCUCACGCGCGCGUGAAAGAGAGAAGUGAACCAGAGAAACACACGUUGUGGUAUAUUACCUGGUA", "note": "[U8C U14C]", "self-cleavage": 0.802}
{"variant": "GUCCUCUUUCACGUGCGCGUGAAAGAGAGAAGUGAGCCAGAGAAACACACGUUGUGAUAUAUUACCUGGUA", "note": "[A36G G57A]", "self-cleavage": 0.148}
{"variant": "GUCCUCUUUCACGUGCGCGUGAAAGAGAGAAGUGAACCAGAGAAACAAACGUUGUGGUAUAUUAGCUGGUA", "note": "[C48A C65G]", "self-cleavage": 0.132}
{"variant": "GUCUUCUUUCACGUGCGCGUGAAAGAGAGAAGGGAACCAGAGAAACACACGUUGUGGUAUAUUACCUGGUA", "note": "[C4U U33G]", "self-cleavage": 0.0889}
{"variant": "GUCCUCUUUUACGUGCGCGUGAAAGAGAGAAGUGAACCAGGGAAACACACGUUGUGGUAUAUUACCUGGUA", "note": "[C10U A41G]", "self-cleavage": 0.765}
{"variant": "GUCCUCUUUCACGUGCGCGUGAAAGAGAGAAGUGAACCAAAGAAACACACGUUGUGGUUUAUUACCUGGUA", "note": "[G40A A59U]", "self-cleavage": 0.136}
{"variant": "GUCCUGUUUCACGUGCGCGUGAAAGAGAGAAGUGAACCAGAGAAACACACGUUGUGGUAUAUUACCUGAUA", "note": "[C6G G69A]", "self-cleavage": 0.251}
{"variant": "GUCCUCUUUCUCGUGCGCGUGAAAGAGAGAAGUGAACCAGAGAAACACACGUUGUGGUAUUUUACCUGGUA", "note": "[A11U A61U]", "self-cleavage": 0.247}
{"variant": "GUCCUCUUUUACGUGCGCGUUAAAGAGAGAAGUGAACCAGAGAAACACACGUUGUGGUAUAUUACCUGGUA", "note": "[C10U G21U]", "self-cleavage": 0.815}
{"variant": "GUCCUCUUUCACGUGCGCGUGAAAGAGAGAAGUGAACCGUAGAAACACACGUUGUGGUAUAUUACCUGGUA", "note": "[A39G G40U]", "self-cleavage": 0.116}
{"variant": "GUCCUCUCUCACGUGCGCGUGAAAGAGAGAAGUGAACCAGAGAAACACACGUUGUGGUAUAUUACCUGGCA", "note": "[U8C U70C]", "self-cleavage": 0.651}
{"variant": "GUUCUCUUUCACGUGCGCGUGAAAGAGAGAAGUGAACCAGAGAGACACACGUUGUGGUAUAUUACCUGGUA", "note": "[C3U A44G]", "self-cleavage": 0.254}
{"variant": "GUCCUCUUUCACGUGCGCGUGAAAGAGAGAAGUGAACCAGAGAAACACACGUUGUUGUAUAUUACCUGGAA", "note": "[G56U U70A]", "self-cleavage": 0.145}
{"variant": "GUCCUCUUUCACGUGCGCGUGAAAGAGAGAUGUGAACCAGAGAAACACACGUUGUGGUAUAUUACAUGGUA", "note": "[A31U C66A]", "self-cleavage": 0.3}
{"variant": "GUCCUCUUCCACGUGUGCGUGAAAGAGAGAAGUGAACCAGAGAAACACACGUUGUGGUAUAUUACCUGGUA", "note": "[U9C C16U]", "self-cleavage": 1.02}
{"variant": "GUCCUCUUUCACGUGCUCGUUAAAGAGAGAAGUGAACCAGAGAAACACACGUUGUGGUAUAUUACCUGGUA", "note": "[G17U G21U]", "self-cleavage": 0.53}
{"variant": "GUCCUCUUUCGCGUGCGCGUGAAAGAGAGAAGUGAACCAGGGAAACACACGUUGUGGUAUAUUACCUGGUA", "note": "[A11G A41G]", "self-cleavage": 1.01}
{"variant": "GUCCUCUUUCACGUGCGCGUGAAAGAGAGAAGUGAACCAGAGAAACACACGUAGUGGUAUGUUACCUGGUA", "note": "[U53A A61G]", "self-cleavage": 0.0972}
{"variant": "AUCCUCUUUCACGUGCGCGUGAAAGAGAGAAGUGAACCAGAGAUACACACGUUGUGGUAUAUUACCUGGUA", "note": "[G1A A44U]", "self-cleavage": 0.17}
{"variant": "GUCCUCUUUCACGUGCGCUUGAAAGAGAGAAGUGAACCAGAGAAAGACACGUUGUGGUAUAUUACCUGGUA", "note": "[G19U C46G]", "self-cleavage": 0.157}
{"variant": "GUCCUCUUUCACGGGCGCGUGAAAGAGAGAAGUGAACCAGAGAAACACACGUUGUGGUAUAUUACCUGGCA", "note": "[U14G U70C]", "self-cleavage": 1.13}
{"variant": "GUCCUCUUUCACGUGCGCGUUAAAGAGACAAGUGAACCAGAGAAACACACGUUGUGGUAUAUUACCUGGUA", "note": "[G21U G29C]", "self-cleavage": 0.224}
{"variant": "GUCCUCUUUCAUGUGCGCGUGAAAGAGAGAAGUGAACCAGAGAAACACACGUUGUGGUAUAUUACCCGGUA", "note": "[C12U U67C]", "self-cleavage": 0.237}
{"variant": "GUCCUCUUUCACGUGCGCGUGAAUGAGAGAAGUGAACCAGAGAAACACACGUUGUGGUCUAUUACCUGGUA", "note": "[A24U A59C]", "self-cleavage": 0.139}
{"variant": "GUCCUCUUUCACGUGCGCGUGAAAGAGAGAAGUGAACCGGAGAAACACACGUUGUGGUAUAUUACAUGGUA", "note": "[A39G C66A]", "self-cleavage": 0.101}
{"variant": "GUCCUCUUUCACGUGCGCGUGAAAGAGAGAAGUGAACCAGAGAAACACACGUCGUGGUAUAUUAGCUGGUA", "note": "[U53C C65G]", "self-cleavage": 0.236}
{"variant": "GUCCUCUUUCACGUGCGCGUGAAAGAGAGAAGUGAACCAUAGAAACAUACGUUGUGGUAUAUUACCUGGUA", "note": "[G40U C48U]", "self-cleavage": 0.181}
{"variant": "GUCCUCUUUCACGUGCGCUUGAAAGAGAGAAGUGAACCAGAGAAACACACGUUGUGGUAUAUUACCUGGCA", "note": "[G19U U70C]", "self-cleavage": 0.722}
{"variant": "GUCCUCUUUCACGUGCGCGUGAAAGAGAGAAGUGAACCAAAGAAACAGACGUUGUGGUAUAUUACCUGGUA", "note": "[G40A C48G]", "self-cleavage": 0.135}
{"variant": "GUCCUCGUACACGUGCGCGUGAAAGAGAGAAGUGAACCAGAGAAACACACGUUGUGGUAUAUUACCUGGUA", "note": "[U7G U9A]", "self-cleavage": 0.68}
{"variant": "GUCCUCUUUCACGUGCGUGUGAAAGAGAGAAGUGAACCAGAGAAACACACGUUAUGGUAUAUUACCUGGUA", "note": "[C18U G54A]", "self-cleavage": 0.695}
{"variant": "GUCCUCUUUUACGUGCGCGUGAAAGAGAGAAGUGAACCAGAGAAACACACGUUGUGGUAUAUUACCUGUUA", "note": "[C10U G69U]", "self-cleavage": 0.217}
